In the RNAGym collection of RNA variant scans (doi:10.1073/pnas.2313332121):
Variants at the floor of the assay were thinned out.

B1: TPR 5TU (parent)
chain: GGAUCUUCUCGAUCUAACAAAAAAGACAAAUCUGCCACAAAGCUUGAGAGCAUCUUCGGAUGCAGAGGCGGCAGCCUUCGGUGGCGCGAUAGCGCCAACGUUCUCAACUAUGACACGCAAAACGCGUGCUCCGUUGAAUGGAGUUUAUCAUG

Variants of: B1
Assay: polymerase ribozyme fitness, log enrichment relative to wild type (log ratio); higher = more active; in vitro selection for triplet polymerase activity
Outline: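 Input and output libraries were sequenced on Illumina after a single in vitro selection round, run in triplicate on PCR-built, transcribed mutant libraries of each subunit of a heterodimeric triplet polymerase ribozyme. Selection annealed libraries to a biotinylated primer, the partner subunit and triplets, incubated them frozen at −7 °C, then gel-excised extended constructs for streptavidin-bead capture and RT-PCR. Genotypes with ≥10 input reads and ≥1 read per output were kept. Fitness is the logarithm, taken in base 2, of genotype enrichment divided by wild-type enrichment, using inverse-variance-weighted replicate averages.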

| Variant | polymerase ribozyme fitness (log ratio) |
| --- | --- |
| GGAUCUUCUCGAUUUAACAAAAAAGACAAAUCUUCCACAAAGCUUGAGCGCAUCUUCGCAUGCAGAGGAGGCAGCCUUCGGUGGCGCGAUCGCGCCAACGUUCUCAACUAUGACACGCAAAACGCGUGCUCCGUUGAAAGGAGUUUCUCAUG [C14U G34U A49C G59C C69A A91C U139A A147C] | ≤ -4.2 |
| GGAUCUUCUCGAUUUAACAAAAAAGACAAAUCUGCCACAAAGCUUGAGAACAUCUUCCGAUGCAGAGGCGGCAGCCUUCGGUGGCGCGAUAGCGCCAACGUUCUCAACUAUGACACGCAACACGCGUGCUCCGUUGAAUGGAGUUUAUCAUG [C14U G50A G58C A121C] | -3.27 |
| GGAUCUUCUCGAUUUAACAAAAAAGACAAAUCUGCCACAAAGCUUGAGAGCAUCUUCGGAUGCAGAGGCGGCAGCCUUCGGUGGCGCGAUAGCGCCAACGUUCUCAACUAUGACAGGCAAAACGCGUAGUCCGUGGAAUGGAGUUUAUCAUG [C14U C116G G128A C129G U135G] | ≤ -4.2 |
| GGAUCUUCUCGAUUUAACAAAAAACACAAAUCUGCCAGAAAGCUUGAGAGCAUCUUCGGAUGCAGAAGAGGCAGCCUUCGGUGGCGCGAUAGCGCUAACGUUCUCAACUAUGACACGCAAGACGCGUGCUCCGUUGAAUGGAGUUUCUCAUG [C14U G25C C38G G67A C69A C96U A121G A147C] | ≤ -4.2 |
| GGAUCUUCUCGAUUUAACAAAAAAGACAAAUCUGCCACAAAGCUUACGAGCAUCUUAGGAUGCACAGGCGGCAGCCUUCGGUGGCUCGAUAGCGCUAACGUUCUCAACUAUGACACGCAAAACGCGUGCUCCGUUGAAUGGAGUUUAUCAUG [C14U G46A A47C C57A G65C G86U C96U] | ≤ -4.2 |
| GGAUCUUCUCGAUUUAACAAAAAACCCAAAUCUGCCACAAAACUUGAGAGCAUCUUCGGUUGCAGAGGCGGCAGCCUUCGGUGACGCGAUAGCGCCAACGUUCUCAAUUAUGACACGCAAAACGCGUGCUCCGUUGAAUGGAGUUUAUCAUA [C14U G25C A26C G42A A60U G84A C108U G152A] | ≤ -4.2 |
| GGAUCUUCUCGAUUUAACAAAAAAGACAAAUCUGCCACAAAGCUUGAGAGCAUCUUCGGAUGCAGAGGCGGCAGCCUUCGGUGGAGCGAUAGCGCCAACGUUCUCAACUAUGACACGCAAAACGCGUGCUCCGGUGAAUGGGGUUUAUCUUG [C14U C85A U134G A142G A150U] | ≤ -4.2 |
| GGAUCUUCUCGAUUUAACAAAAAAGACAAAUCUGCCACAAAGCUUGAGAGCAUCUUCGUAUGCAGAGGCGGCAGCCUUCGGUGGCGCGAUAGCGCCAACGUUCUCAACUAUGACACGCAAAACGCGUGCUCCGUUGAAUGGAGUUUAUCAUG [C14U G59U] | -1.23 |
| GGAUCUUCUCGAUUUAACAAAAAAGACAAAUCUGCCACAAAGCUUGAUAGCUUCUUCGGAUGCAGAGGCGGCAGCCUUCGGUGGCGCGAUAGCGCCAACGUUCUCAACUAUGACACGCAAAACGCGUGCUCCGUUGACUGGCGUUUAGCAUG [C14U G48U A52U A138C A142C U148G] | ≤ -4.2 |
| GGAUCUUCUCGAUUUAACAAAAAAGACAAAUCUGCCACAAAGCUUGAGAGCAUCUUCGGAUGCAGAGGCGGUAGCUUUCGGUGGCGCGAUAGCGCAAACGUUCUCAACUAUUACACGCAAAACGCGUGCUCCGUUGAAUGGAGUUUAUCAUG [C14U C72U C76U C96A G112U] | ≤ -4.2 |
| GGAUCUUCUCGAUUUAACAAAAAAGACAAAUCUGCCACAAAGCUUGAGAGCAUCUUAGGAUGCAGAGGCGGCAGCCUUCGGUGGCGCGAUAGCGCCAACGUUCUCAACUAUGACACGCAAAACGCGUGCUCCGUUGAAUGGAGUUUAUCAUG [C14U C57A] | -0.738 |
| GGAUCUUCUCGAUUUAACAAAAAAGACAAAUCUGCCACAAAGCUUGAGAGCAUCUUCGGAUGCAGAGGCGGCAGCCUUCGGUGGCGUGAUAGCGCCAAUGUUCUCAACUAUGACACGCAAAACAUGUGCUCCGUUGAAUGGAGUUUAUCAUG [C14U C87U C99U G124A C125U] | -2.54 |
| GGAUCUUCUCGAUUUAACAAAAAAGACAAAUCUGCCACAAAGCUUGAGAGCAUCUUCGGAUGCAGAGGCGGCACCCUUCGGUGGCGCGAUAGCGCCAACGUUCUCAGCUAUGACACGCAAAACGCGUGCUCCGUUGAAUGGAGUUUAUCAUG [C14U G74C A107G] | ≤ -4.2 |
| GGAUCUUCUCGAUUUAACAAAAAAGACAAAUCUGCCACAAAGCUUGAGAGCAUCUUCGGAUGCAGAGGCGGCAACCUUCGGUGGCGCGAUAGCGCCAAAGUUCUCAACUAUGACACGCAAAACGCGUGCUCCGUUGAAUGGAGUUUAUCAUG [C14U G74A C99A] | ≤ -4.2 |
| GGAUCUUCUCGAUUUAACAAAAAAGACAAAUCUGCCACAAAACUUGAGAGCAUCUUCGGAUGCAGAGGCGGCAGCCUUCGGUGGCGUGAUAGCGCCAACGUUCUCAACUAUGACACGCAAAACGCGUGCUCCGUUAAAUGGAGUUUAUCAUG [C14U G42A C87U G136A] | ≤ -4.2 |
| GGAUCUUCUCGAUUUAACAAAAAAGACAAAUCUGCCACAAAGCUUGAGAGCAUUUUCGGAUGCAGAGGCGGCAGCCUUCGGUGGCGCGAUAGCGCCAACGUUCUCAACUAUGACACGCAAAACGCGUGCUCCGUUGAAUGGAGUUUAUCAUG [C14U C54U] | -1.87 |
| GGAUCUUCUCGAUUUAACAAAAAAGACAAAUCUGCCACAAAGCUUGAGACCAUCUUCGGAUGCAGAGGCGGCAGCCUUCGGUGGCGCGUUAGGGCCAACGUUCUCAACUAUGACACGCAAAACGCGUGCUCCGUUGAAUGGAUUUUAUCAUG [C14U G50C A89U C93G G143U] | ≤ -4.2 |
| GGAUCUUCUCGAUUUAACAAAAAAGACAAAUCUGCCACAAAGCUUGAGACCAUCUUCGGAUGCAGAGGCGGCAGCCUUCGGUGGCGCGAUAGCGCCAUCGUUCUCAAAUAUGACACGCAAAACGCGUGCUCCGUUGAAUGGAGUUUAUCAUG [C14U G50C A98U C108A] | ≤ -4.2 |
| GGAUCUUCUCGAUUUAACAAAAAAGACAAAUCUGCCACAAAGCUUGAGAGCAUCUUCGGAUGCAGAGGCGGCAGCCUUCGGUGGCGCGAUAGCGUCAACGGUCUUAACUAUGACACGCAAAACGUGUGCUCCGUUGAAUGGUGUUUAUCAUG [C14U C95U U101G C105U C125U A142U] | ≤ -4.2 |
